Reference: patent US20030204066A1

Target: human tumor necrosis factor-α (TNFα) (human) (UniProt P01375)
Test: cell-based or functional assay

Sequence of human tumor necrosis factor-α (TNFα) (human) (P01375 77-233): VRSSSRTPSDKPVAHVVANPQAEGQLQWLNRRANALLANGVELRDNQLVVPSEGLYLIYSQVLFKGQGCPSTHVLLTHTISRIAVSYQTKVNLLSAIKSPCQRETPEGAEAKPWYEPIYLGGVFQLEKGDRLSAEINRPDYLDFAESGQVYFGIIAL

B1: chimeric mouse/human IgG1 anti-platelet mAb (7E3) (antibody, INN chains, looked up, V domains shown)
VH: EVQLQQSGTVLARPGASVKMSCEASGYTFTNYWMHWVKQRPGQGLEWIGAIYPGNSDTSYIQKFKGKAKLTAVTSTTSVYMELSSLTNEDSAVYYCTLYDGYYVFAYWGQGTLVTVSA
VL: EIVLTQSPVTLSVTPGDSVSLSCRASRDISNNLHWFQQTSHESPRLLIKYASQSMSGIPSRFSGSGSGTDFTLSINSVETEDFGMYFCQQTNSWPYTFGGGTKLEIK
modifications: chimeric IgG1
Work on B1 yielded an IL-6 secreted by FS-4 fibroblasts (ng/ml) at 0.3 ng/ml TNF, 4 µg/ml antibody of 1.6 ng/mL, an IL-6 secreted by FS-4 fibroblasts (ng/ml) at 1.5 ng/ml TNF, 4 µg/ml antibody of 1.96 ng/mL and an IL-6 secreted by FS-4 fibroblasts (ng/ml) at 7.5 ng/ml TNF, 4 µg/ml antibody of 2.16 ng/mL.
